Data from US20190300603A1 (CRESCENDO BIOLOGICS, published 2019).

Target: T1, recombinant human IL-17A (human, UniProt Q16552 24-155)
T1 construct: also called Peprotech cat# AF-200-17
T1 sequence: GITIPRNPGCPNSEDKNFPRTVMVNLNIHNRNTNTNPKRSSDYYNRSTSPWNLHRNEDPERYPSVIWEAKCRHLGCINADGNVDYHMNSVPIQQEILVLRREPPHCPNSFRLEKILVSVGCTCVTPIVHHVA
Assay: ELISA

binding result: binds
B1: VH domain as identified in SEQ ID NO: 1 (optimised anti-IL-17A single VH domain antibody) (VHH)
VHH: EVQLVESGGGLVQPGGSLRLSCAASGFTFSSYSMYWVRQAPGKGLEWVAEIKQDGSVQYYVSDVKGRFTISRDNAKNSLYLQMNSLRAEDTAVYYCAKGEILPLYFDYWGQGTLVTVSS
notes: Human VH single domain antibody (Humabody VH) without a light chain, from Tg/TKO mice and then optimised
